According to patent US20240343789A1 (published 2024):
Read-outs that look alike come from different tables or passages of the source.

Legend:
Assay in all cases: ECL ELISA titration
[1] = target: T1, IGFR-L1 protein (Endosome/lysosome-associated apoptosis and autophagy regulator 1, ELAPOR1) (UniProt Q6UXG2 42-1013)
T1 chain: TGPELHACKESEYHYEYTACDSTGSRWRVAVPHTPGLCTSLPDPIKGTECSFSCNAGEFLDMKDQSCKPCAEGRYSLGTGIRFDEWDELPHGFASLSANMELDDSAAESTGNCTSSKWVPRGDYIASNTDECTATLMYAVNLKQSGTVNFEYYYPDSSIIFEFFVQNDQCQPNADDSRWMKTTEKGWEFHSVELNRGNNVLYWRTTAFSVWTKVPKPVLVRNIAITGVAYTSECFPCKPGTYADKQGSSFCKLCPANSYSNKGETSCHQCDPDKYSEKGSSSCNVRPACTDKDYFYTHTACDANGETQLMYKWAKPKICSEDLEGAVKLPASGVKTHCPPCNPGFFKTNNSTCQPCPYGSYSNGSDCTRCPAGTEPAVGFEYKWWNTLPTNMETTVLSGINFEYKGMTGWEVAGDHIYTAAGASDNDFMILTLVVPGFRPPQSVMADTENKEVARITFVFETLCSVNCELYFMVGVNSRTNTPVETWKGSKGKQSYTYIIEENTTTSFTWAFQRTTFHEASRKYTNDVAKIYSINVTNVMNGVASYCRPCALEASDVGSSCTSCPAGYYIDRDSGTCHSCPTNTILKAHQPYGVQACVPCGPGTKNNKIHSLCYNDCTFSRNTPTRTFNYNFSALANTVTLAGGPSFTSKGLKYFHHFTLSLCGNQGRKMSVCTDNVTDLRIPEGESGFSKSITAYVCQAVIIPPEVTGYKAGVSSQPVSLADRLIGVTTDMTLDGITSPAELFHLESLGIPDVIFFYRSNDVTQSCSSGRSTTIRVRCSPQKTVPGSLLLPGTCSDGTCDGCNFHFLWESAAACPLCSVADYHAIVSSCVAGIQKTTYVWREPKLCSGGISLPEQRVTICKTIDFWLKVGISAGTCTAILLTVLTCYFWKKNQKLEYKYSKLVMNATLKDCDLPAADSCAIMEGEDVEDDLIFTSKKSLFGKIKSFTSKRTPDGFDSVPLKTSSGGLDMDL

[2] = target: T1, IGFR-L1 protein …
[3] = target: T1, IGFR-L1 protein …
[4] = target: T1, IGFR-L1 protein …
[5] = target: T1, IGFR-L1 protein …
[6] = target: T1, IGFR-L1 protein …

B1: AB-5 (antibody, V domains shown)
VH: EVQLVESGGGLVQPGRSLKLSCAAPGFTFSASDMAWVRQAPTKGLEWVASISPSGDSTYYRDSILGRFTVSRDNAKSSLYLQMDSLRSEDTATYYCARHLGLGPFDHWGQGVMVTVSS
VL: DIQMTQSPSLLSASVGDRVTLSCKAGRDINNYLAWYQQKLGEAPKLLIYNANFLQTGIPSRFSGSGSGTDYTLTISSLQPEDVATYFCQQFNTWTGTFGGGTKLELKR
In the case of B1, the Kd [1] is reported as 4.78 nM.

B2: AB-1 (antibody, V domains shown)
VH: EIQLQESGPGLVKPSQSLSLTCSVTDYTITSGFGWSWIRKFPGNKLEWMGYISYSGSTNYNPSLKSRLSLTRDTTKNQFFLQLISVTPEDTATYYCARSPLYGSNRYVVDAWGQGASVTVSS
VL: DVQMTQSPSILTASPGESVSINCKASKSISNYLAWYQQKPGKSINLLIYSGSTLQSGTPSRFSGSGSGTDFTLTIRNLDPEDFGRYYCQQHNENPYTFGPGTRLELKR
B2 gave a Kd [2] of 2.8 nM.

B3: AB-12 (antibody, V domains shown)
VH: EVKLLESGGGLVQPGGSMRLSCAASGFTFTDFYMNWIRQPAGKAPEWLGFIRNKANGYTTEYTPSVKGRFTISRDDTQNMLYLQMNTLRAEDTATYYCARHYYDGSYYYWYFDFWGPGTMVTVSS
VL: DVVLTQTPVAQPVTLGDQVSISCRSSQSLVKSNGNTYLEWFLQKPGQSPQLLIYKVSNRFSGVPDRFIGSGSGSDFTLKISRVEPEDLGVYYCFQAAHDPRTFGGGTKLELKR
For B3, the Kd [3] was 2.79 nM.

B4: AB-2 (antibody, V domains shown)
VH: EVQLVESDGGFVQPGRSLTLSCAASGFTFSDYYMSWVRQAPTKGLEWVATIGYDVSYTNYRDSVKGRFTISRDNAKSILSLQMDSLRSEDTATYYCARHPSYFDYWGQGVMVTVSS
VL: DIVMTQSPSSLAVSAGETVTINCKSSQSLFYSENQKNYLAWLQQKPGQSPKLLITWASTRQSGVPDRFIGSGSGTDFTLTISSVQAEDLAIYHCQQYYDTPRTFGGGTQLELKR
With B4 the Kd [2] was 2.22 nM.

B5: AB-11 (antibody, V domains shown)
VH: EVQLVESDGGFVQPGRSLKLSCAASGFTFSDYYMSWVRQAPTKGLEWVATIGYDGTYTNYRDSVKGRFTISRDNARSILYLQMDSLRSEDTATYYCARHPSYFDHWGQGVMVTVSS
VL: DIVMTQSPSSLAVSAGETVTINCKSSQSLLYSENQKNYLAWFQQRPGQSPKLLINWASTRQSGVPDRFIGSGSGTDFTLTISSVQAEDLATYHCQQYYDTPRTFGGGSKLELKR
B5 showed a Kd [3] of 2.81 nM.

B6: AB-6 (antibody, V domains shown)
VH: EVQLVESDGGLVQPGRSLKLSCAASGFSFSDYYMAWLRQAPTKGLEWVATISHDGTGTYFRDSVKGRFTISRDNVKSTLYLQLDSLRSEDTATYYCARHKDGGYKDYWGQGVMVTVSS
VL: DIKMTQSPSPLSASLGERVTISCRASDNIDNYLSWYQKKEDGSVRLLIYHTSRLQPGAPSRFSGSGSGKDYSLTISGLESEDIATYYCQQTYTPYTFGAGTKLELRR
B6 gave a Kd [1] of 5.27 nM.

B7: AB-8 (antibody, V domains shown)
VH: QVQLQQSGAELAKPGSSVKISCKASGYTFTSYFISWIKQTTGQDLEYIGYINTGSGGTNYNEKFKGKATLTVDRSSSTAFMQLSSLTPDDSAVYYCARELRRVRGWFAYWGQGTLVTVSS
VL: DTQMTQSPASLFASLGETVTIQCQASEDISSGLAWYQQKPGKSPHLLIYGANSLQDGVPSRFSGSGSGTQYSLKITNMQADDEGVYFCQQGLKYPFTFGSGTKLEIKR
B7 was tested, and the Kd [4] was 2.74 nM.

B8: AB-4 (antibody, V domains shown)
VH: EVQLVESGGGFVRPGKSLKLSCSASGFTFNTYGMHWIRQAPGKGLDWVSYISSSSATAYADAVKGRFTISRDNAKNTLYLQLNSLRSEDTAIYHCAREATYYGYPRYYFDYWGQGVMVTVSS
VL: DIQMTQSPSSMSVSLGDRVTFTCRASQDIGNYLSWYQQKPEKSPRLMIYTATDLEDGVPSRFSGSRSGSDYSLTINSLESEDRGIYFCLQHKQYPYTFGSGTKLELKR
In the case of B8, the Kd [5] is reported as 2.76 nM.

B9: AB-3 (antibody, V domains shown)
VH: EVQLLESGGGLVQPGGSLSLSCAASGFTFTDFYMNWIRQPAGKAPEWLAFARNKANGYTTDYNPSVKGRFAISRDNTQNMFYLHMNTLRPEDTATYYCARGRPSDYWGQGVMVTVSS
VL: DIVMTQSPSSLAVSTGETVTMDCKSSQNLFYSGNQRNYLAWYQQKPGQSPTLLIYWASTRRSGVPDRFIGSGSGTDFTLTISSVQAEDLALYYCQQYDDPPYTFGAGTKLELKR
In the case of B9, the Kd [5] is reported as 2.75 nM.

B10: AB-7 (antibody, V domains shown)
VH: QVKLLQSGAALVKPGDSVKMSCKASGYSFTDYSIHWVKQSHGKSLEWIGYINPYSGGTTYNEKFKRKATLTVDKSSSTAYMEFSRLTSEDSAIYYCAREGMGITLYVMDAWGQGASVTVSS
VL: DIVLTQSPALAVSLGQRATVSCKASQTVTISRYHLLHWYQQKPGQQPTLLIYRASNLASGIPARFSGSGSGTDFTLTINPVQADDLASYYCQQSWGSPWTFGGGTKLELKR
Work on B10 yielded a Kd [4] of 1.44 nM.

B11: AB-10 (antibody, V domains shown)
VH: GVQLVESGGGLVQSGRSIKVSCEASGFTFSNFYMAWVRQAPTKGLEWVASISSGGGNTHYRDSVRGRFTISRNNAKSTLYLQMDSLNSEDTATYYCARDPGGGSPYWYLDFWGPGTMVTVSS
VL: DIVLTQSPALAVSLGQRATISCRANQNVDFYDNTYLHWYQQKPGQQPKLLIYLASNLASGIPARFSGGGSGTDFTLTIDPVEADDTATYYCQQSRNLPNTFGAGTKLELKR
In the case of B11, the Kd [6] is reported as 1.01 nM.

B12: AB-9 (antibody, V domains shown)
VH: EVQLVESGGGLVQPTGSVKLSCAASGFIFTNYGMAWVRQAPKKGLEWVAYISYDGGSTYFRDSVRGRFTISRDNAKSTLYLHMDSLRSEDTATYYCTTPRLDTWGQGVMVTVSS
VL: DIQMTQSPSSLSASLGDRVTITCRPSQDIGNHLSWFQQKPGKSPRLMTYGATILEDGVPSRFSGSRSRSDYSLTISSLESEDTAIYYCLQYDKYPRTFGGGTKVELKR
Work on B12 yielded a Kd [6] of 2.95 nM.
